{"source": "patent US20200239888", "key": {"[1]": {"target": "FUS(1-526)[P525L][R/S in 375-422 and 454-526]-NLUC-FLAG P525L; all Arg to Ser in 375-422 and 454-526 (UniProt P35637)", "conditions": "nanoBRET"}, "[2]": {"target": "FUS(375-526)[P525L][R/S in 454-526]-NLUC-HA P525L; all Arg to Ser in 454-526 (UniProt P35637)", "conditions": "full PS, nanoBRET"}, "[3]": {"target": "FUS(375-526)[P525L][R/S in 375-422]-NLUC-HA P525L; all Arg to Ser in 375-422 (UniProt P35637)", "conditions": "full PS, nanoBRET"}, "[4]": {"target": "HA-NES-β23-NLUC-FUS(375-526)[P525L][R/S in 375-422 and 454-526] P525L; all Arg to Ser in 375-422 and 454-526 (UniProt P35637)", "conditions": "full PS, nanoBRET"}, "[5]": {"system": "HA-NES-β23-NLUC (artificial)", "conditions": "full PS, nanoBRET, control fusion"}, "[6]": {"target": "NanoLuc luciferase control (NLUC-HA) (UniProt Q9GV45)", "conditions": "full PS, nanoBRET, control protein"}, "[7]": {"conditions": "2'-MOE at 1-5 and 16-20, DNA at 6-15, all C 5mC"}, "[8]": {"conditions": "cEt at 1-5 and 16-20, DNA at 6-15, all C 5mC"}, "[9]": {"conditions": "2'-F at 1-5 and 16-20, DNA at 6-15, 5mC at C8, C9, C11"}}, "note": "Where two headings read alike, the source gives them in different places.", "data": [{"sequence": "CTGCTAGCCTCTGGATTTGA [766633 (2'-MOE 5-10-5 gapmer)]", "values": [{"measurement": "Kd", "setting": "[1]; 2'-MOE at 1-5 and 16-20, DNA at 6-15, full PS, all C 5mC", "result": 1.6, "unit": "nM"}, {"measurement": "Kd", "setting": "[2]; [7]", "result": 282, "unit": "nM"}, {"measurement": "Kd", "setting": "[3]; [7]", "result": 12.4, "unit": "nM"}, {"measurement": "Kd", "setting": "[4]; [7]", "result": "> 1000", "unit": "nM"}, {"measurement": "Kd", "setting": "[5]; [7]", "result": "> 1000", "unit": "nM"}, {"measurement": "Kd", "setting": "[6]; 2'-MOE at 1-5 and 16-20, DNA at 6-15, all C 5mC, 100 mM KOAc, 20 mM Tris pH 8.0, 1 mM EDTA, 0.01% NP-40, RT", "result": "> 1000", "unit": "nM"}]}, {"sequence": "CTGCTAGCCTCTGGATTTGA [766635 (cEt 5-10-5 gapmer)]", "values": [{"measurement": "Kd", "setting": "[1]; cEt at 1-5 and 16-20, DNA at 6-15, full PS, all C 5mC", "result": 3.7, "unit": "nM"}, {"measurement": "Kd", "setting": "[2]; [8]", "result": 290, "unit": "nM"}, {"measurement": "Kd", "setting": "[3]; [8]", "result": 14.3, "unit": "nM"}, {"measurement": "Kd", "setting": "[4]; [8]", "result": "> 1000", "unit": "nM"}, {"measurement": "Kd", "setting": "[5]; [8]", "result": 950, "unit": "nM"}, {"measurement": "Kd", "setting": "[6]; [8]", "result": "> 1000", "unit": "nM"}]}, {"sequence": "CUGCUAGCCTCTGGAUUUGA [766637 (2'-F 5-10-5 gapmer)]", "values": [{"measurement": "Kd", "setting": "[1]; 2'-F at 1-5 and 16-20, DNA at 6-15, full PS, 5mC at C8, C9, C11", "result": 0.3, "unit": "nM"}, {"measurement": "Kd", "setting": "[2]; [9]", "result": 38.4, "unit": "nM"}, {"measurement": "Kd", "setting": "[3]; [9]", "result": 1.8, "unit": "nM"}, {"measurement": "Kd", "setting": "[4]; [9]", "result": 200, "unit": "nM"}, {"measurement": "Kd", "setting": "[5]; [9]", "result": 345, "unit": "nM"}, {"measurement": "Kd", "setting": "[6]; [9]", "result": "> 1000", "unit": "nM"}]}, {"sequence": "CUGCUAGCCUCUGGAUUUGA [JB39 (RNA, phosphodiester)]", "values": [{"measurement": "Kd", "setting": "[1]", "result": 248, "unit": "nM"}]}]}
